Laboratory results: publication PMC8633249 (2021)

Assays:
[1] = molecular target: T1, AGL55, 55-mer A-domain peptide of PAM_(NS88.2) (Streptococcus pyogenes (GAS isolate …)); assay: ITC; 4°C
[2] = molecular target: T1, AGL55, 55-mer A-domain peptide of …; assay: ITC; 25°C
[3] = molecular target: T1, AGL55, 55-mer A-domain peptide of …; assay: ITC; 37°C

B1: K2hPg, kringle-2 domain of human plasminogen (domain or fragment)
chain: YVEFSEECMHGSGENYDGKISKTMSGLECQAWDSQSPHAHGYIPSKFPNKNLKKNYCRNPDRDLRPWCFTTDPNKRWEYCDIPRCAA
B1 was tested, and the Kd [1] was 0.0026 µM, the Kd [2] was 0.031 µM and the Kd [3] was 0.236 µM.
